According to patent publication US20060264603A1 (DYAX, published 2006):
Ends that are not written are not given here.

Experiments:
[1] = target: T1, human plasma Kallikrein (Calbiochem, San Diego, Calif., # 420302) (human, UniProt P03952 20-638); assay: inhibition; method not described
T1 construct: mature; Bought enzyme coupled to agarose beads with Reactigel (6x); also called pKA; human Kallikrein

Plasmin [2] = target: T2, Plasmin; assay: inhibition; method not described
T2 construct: Protease target in the specificity test

[3] = target: T1, human plasma Kallikrein (Calbiochem, …); assay: preliminary inhibition measurements; method not described
[4] = target: T1, human plasma Kallikrein (Calbiochem, …); assay: display-phage binding to kallikrein beads; pfu eluted / input (10^10 pfu)
[5] = target: T1, human plasma Kallikrein (Calbiochem, …); assay: display-phage binding to kallikrein beads; fraction bound relative to parental
[6] = target: T1, human plasma Kallikrein (Calbiochem, …); assay: display-phage binding to protease target
Plasmin [7] = target: T2, Plasmin; assay: display-phage binding to protease target
Thrombin = target: T3, Thrombin; assay: display-phage binding to protease target
T3 construct: Protease target in the specificity test

Trypsin [8] = target: T4, Trypsin; assay: display-phage binding to protease target
T4 construct: Protease target in the specificity test

Trypsin [9] = target: T4, Trypsin; assay: display-phage binding to protease target; trypsin, two washes

T1 sequence (P03952 20-638 limits assumed): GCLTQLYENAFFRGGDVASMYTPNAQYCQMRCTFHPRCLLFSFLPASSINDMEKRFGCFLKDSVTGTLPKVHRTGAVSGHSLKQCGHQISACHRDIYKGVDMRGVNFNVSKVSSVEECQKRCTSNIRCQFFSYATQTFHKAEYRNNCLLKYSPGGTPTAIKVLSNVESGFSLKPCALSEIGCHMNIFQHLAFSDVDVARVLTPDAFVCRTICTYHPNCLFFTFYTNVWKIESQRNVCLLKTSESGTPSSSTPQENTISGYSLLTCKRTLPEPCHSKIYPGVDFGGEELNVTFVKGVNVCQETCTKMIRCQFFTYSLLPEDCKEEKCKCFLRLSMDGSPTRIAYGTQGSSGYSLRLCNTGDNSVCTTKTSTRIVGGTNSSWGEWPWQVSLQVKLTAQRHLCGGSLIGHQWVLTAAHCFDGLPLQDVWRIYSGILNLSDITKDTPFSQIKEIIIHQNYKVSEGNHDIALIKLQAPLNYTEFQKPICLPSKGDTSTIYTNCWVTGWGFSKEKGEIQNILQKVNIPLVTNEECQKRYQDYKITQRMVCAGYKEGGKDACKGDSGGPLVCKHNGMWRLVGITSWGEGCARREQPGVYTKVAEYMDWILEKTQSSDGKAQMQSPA
T2 sequence (P00747 97-580, chain 1 of 2): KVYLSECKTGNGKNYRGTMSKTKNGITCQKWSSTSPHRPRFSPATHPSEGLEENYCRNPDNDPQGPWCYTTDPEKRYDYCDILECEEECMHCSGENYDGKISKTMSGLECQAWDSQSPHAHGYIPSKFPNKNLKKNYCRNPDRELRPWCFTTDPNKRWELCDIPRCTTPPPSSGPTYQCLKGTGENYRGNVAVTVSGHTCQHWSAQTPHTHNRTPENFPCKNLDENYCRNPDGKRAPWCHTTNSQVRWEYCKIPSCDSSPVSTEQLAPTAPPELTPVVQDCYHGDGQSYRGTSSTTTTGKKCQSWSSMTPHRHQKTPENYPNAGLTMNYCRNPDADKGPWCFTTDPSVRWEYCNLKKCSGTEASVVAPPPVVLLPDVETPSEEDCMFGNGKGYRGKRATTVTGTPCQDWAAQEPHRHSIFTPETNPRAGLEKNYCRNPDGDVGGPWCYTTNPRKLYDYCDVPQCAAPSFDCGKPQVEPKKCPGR
T2 sequence (P00747 581-810, chain 2 of 2): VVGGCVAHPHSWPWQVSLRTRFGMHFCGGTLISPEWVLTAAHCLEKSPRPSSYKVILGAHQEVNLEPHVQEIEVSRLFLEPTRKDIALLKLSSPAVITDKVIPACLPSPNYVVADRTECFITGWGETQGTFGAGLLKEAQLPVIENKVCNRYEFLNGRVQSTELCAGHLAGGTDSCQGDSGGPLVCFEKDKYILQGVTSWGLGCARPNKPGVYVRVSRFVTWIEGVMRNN

Binder	Ki ratio against wild-type LACI and BPTI [1]	Ki (Plasmin [2])	Ki [3]	Fraction Bound [4]	Relative Binding [5]	relative binding (compared to the parental phage display) [6]	relative binding (compared to the parental phage display) (Plasmin [7])	relative binding (compared to the parental phage display) (Thrombin)	relative binding (compared to the parental phage display) (Trypsin [8])	relative binding (compared to the parental phage display) (Trypsin [9])
KKII/3#6 (designed binder, LACI-K1 Kunitz domain variant) MHSFCAFKADDGHCKANHQRFFFNIFTRQCEEFSYGGCGGNQNRFESLEECKKMCTRD	> 100 times	10 µM	< 0.0005 µM	0.0087 fraction of input pfu	2070 fold relative to LACI(K1) display-phage					
LACI-K1 (first Kunitz domain of LACI, residues 50-107 of SEQ ID NO:25) (other, also called parental molecule) MHSFCAFKADDGPCKAIMKRFFFNIFTRQCEEFIYGGCEGNQNRFESLEECKKMCTRD				4.2e-06 fraction of input pfu	1 fold relative to LACI(K1) display-phage	1 fold relative to parental phage display	1 fold relative to parental phage display	1 fold relative to parental phage display	1 fold relative to parental phage display	1 fold relative to parental phage display
KKII/3#5 (designed binder, LACI-K1 Kunitz domain variant) MHSFCAFKADDGHCKASLPRFFFNIFTRQCEEFIYGGCGGNQNRFESLEECKKMCTRD				0.0039 fraction of input pfu	928 fold relative to LACI(K1) display-phage					
KKI/3 (b) (designed binder, not fully specified; cysteine pairing not given here, LACI-K1 variant from the first phase of screening; also called KKII/3 (b); clone b) MHSFCAFKADDGPCKAIHLRFFFNIFTRQCEEFIYGGCEGNQNRFESLEECKKMCTRD				0.0022 fraction of input pfu	524 fold relative to LACI(K1) display-phage					
KKI/3 (a) (designed binder, not fully specified; cysteine pairing not given here, LACI-K1 variant from the first phase of screening; also called KKII/3 (a); clone a) MHSFCAFKADDGRCKGAHLRFFFNIFTRQCEEFIYGGCEGNQNRFESLEECKKMCTRD				3.2e-05 fraction of input pfu	761 fold relative to LACI(K1) display-phage					
